These are literature values, as cited in article PMC3800467.

For the series, the target named is RRGHYY peptide.

For TEM1 β-lactamase (from UniProt P62593), the Ki is 140 µM.
